# Measured values from the nanobody polyreactivity screen of Harvey et al. (2022).
# Test: yeast display, Sf9 membrane polyspecificity reagent, FACS + sequencing; frameworks hold sequencing errors
# How it was run: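 Synthetic nanobody libraries on Saccharomyces cerevisiae BJ5465 were galactose-induced for 36–48 hours, stained 1 hour at 4 °C with 10% biotinylated, detergent-solubilized Sf9 membrane reagent and enriched on streptavidin microbeads. FACS then separated cells into low and high (top ~1%) gates by anti-HA (expression) and streptavidin (reagent binding) fluorescence. Genes were colony-PCR amplified, MiSeq 2 × 250 sequenced and CDR-length filtered. A clone's polyreactivity label is that of its gate of origin.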
row,Sequence,polyreactivity (PSR sort gate)
1,QVQLVESGGGLVQAGGSLRLSCAASGSTFWDYAMGWYRQSPGKERELVAGITYSGTSTYYADSVKARFTISRDHAKNTVYLQMNSLKPEDTAVYYCAAESQAVGWWTPGYDYWGQGTQVTVSS,low polyreactivity
2,QVQLVESGGGLVQAGGSLRLSCAASGSTFWFNAMGGSRQAPGKERELVAAIPSRGGYTYYADSVKGRFTISRDHAKNTVYLQMNSLKPEDTAVYYCAADYRYSSRKVFHFDYWGQGTQVTVSS,low polyreactivity
3,QVQLVESGGGLVQAGGSLRLSCAASGSTFWFNDMGWYRQAPGKEREFVAAISSIGGSTYYADSVKGRFTISRDNAKNNVNLQMNSLKPEDTAVYYCAVEVVRVYRYDYWGQGTQVTVSS,low polyreactivity
4,QVQLVESGGGLVQAGGSLRLSCAASGSTFWFYAMGWYRQAPGTERELVAVISNSGSTYYADSVKGRFTISRDNAKNTVYLQMNSLKPEDTEVYYCNKDGGGDSYWYDYWGQGTQVTVSS,low polyreactivity
5,QVQLVESGGGLVQAGGSLRLSCAASGSTFWGNAMGWYRQAPGKERELVAAIDWSGGRTYYADSVKGRFTISRDNAKNTVYLQMNSLKPEDTAVYYCATRAWRGYGPYDYWGQGTQVTVSS,high polyreactivity
6,QVQLVESGGGLVQAGGSLRLSCAASGSTFWGNAMGWYRQAPGKERELVAAISNGGSTNYADSVKGRFTISRDNAKNTVYLQMNSLKPEDTAVYYCAADGHTSNGVSLHGYWGQGTQVTVSS,low polyreactivity
7,QVQLVESGGGLVQAGGSLRLSCAASGSTFWGNAMGWYRQAPGKERELVAAISWIGGGTYYADSVKGRFTISRDNAKNTVYLQMNSLKPEDTAVYYCAAKIFIRVHYYSYRMYYWGQGTQVTVSS,low polyreactivity
8,QVQLVESGGGLVQAGGSLRLSCAASGSTFWIYAMGWYIQAPGTERELVAAITLRSGSTYYADSVKGRFTISRDNAKNTVYLQMISLKPEDTAVYYCATDSWGVDRPNYNYWGQGTQVTVSS,low polyreactivity
9,QVQLVESGGGLVQAGGSLRLSCAASGSTFWKYVIGWYRQEPGKERELVAAITSRGGSTYADSVKGRFTISRDNAKNTVYLQMNSLKPEDTAVYYCAATKFWYYGYDYWGQGTQVTVSS,low polyreactivity
10,QVQLVESGGGLVQAGGSLRLSCAASGSTFWLYAMGWYRQAPGKERELVASISSRGGSTYYADSVKGRFTISRDNAKNTVYLQMNSLKPEDTAVYYCAAKDIRYDDDYWGQGTQVTVSS,low polyreactivity
11,QVQLVESGGGLVQAGGSLRLSCAASGSTFWTYTMGWYRQAPGKERELVAVISSTGGDTYYADSVKGRFTISRDNAKNTVYLQMNSLKPEDTAVYYCAARIRRWYAGYGGYYWGQGTQVTVSS,high polyreactivity
12,QVQLVESGGGLVQAGGSLRLSCAASGSTFWVYAMGWYRQAPGKERELVASITFSGSSTYYADSVKGRFTISRDNAKNTVYLQMNSLKPEDTAVYYCAAGEGGDRSRGYLSQYGYWGQGTQVTVSS,low polyreactivity
13,QVQLVESGGGLVQAGGSLRLSCAASGSTFWYAMGWYRQAPGKERELVAAITARGGRTYYADSVKGRFTISRDNAKHTVYLQLISLKPEDTAVYYCARLSYAGGQWIIGKYDYWGQGTQVTVSS,high polyreactivity
14,QVQLVESGGGLVQAGGSLRLSCAASGSTFWYYALGWYRQAPGKERELVAAIRWSDGSTYYADSVKGRFTSSRDNAKNTVYLQMNSLKPEDTAVYYCEYYYWGQGTQVTVSS,low polyreactivity
15,QVQLVESGGGLVQAGGSLRLSCAASGSTFWYYAMGWSRQAPGKERELVADITYSGVSTYYADSVKGRFTISRDNAKNTVYLQMNSLKPEDTAVYYCNAVWGSVKGYSGYYYWGPGTQVTVSS,low polyreactivity
16,QVQLVESGGGLVQAGGSLRLSCAASGSTFWYYAMGWYRQAPGKEREFVAAITTSAGRTYDADSVKGRFTISRDHAKNTVYLQMNSLKPEDTAVYYCAAEPRQYWEYNYWGQGTQVTVSS,high polyreactivity
17,QVQLVESGGGLVQAGGSLRLSCAASGSTFWYYAMGWYRQAPGKERELVAGITQSGGSTYYADSVKGRFTISRDNEKNTVYLQMNRLKPEDTAVYYCAKDGRVSGDFDYWGQGTQVTVSS,low polyreactivity
18,QVQLVESGGGLVQAGGSLRLSCAASGSTFWYYAMGWYRQAPGKEREMVATIRWRGGSTYYADSVKGRFTISRDNAKNTLYLQMNSLKPEDTAVYYCAADTWAYVGYYYGFDYWGQGTQVTVSS,high polyreactivity
19,QVQLVESGGGLVQAGGSLRLSCAASGSTFWYYDMGWYRQAPGKERELVAAITSGGRTNYADSVKGRFTISRDNAKNTVYLQMNSLKPEDTAVYYCARGPLSHTALYWRGRYNYWGQGTQVTVSS,high polyreactivity
20,QVQLVESGGGLVQAGGSLRLSCAASGSTFWYYTMGWYRPAPGKERELVAGITSGGSTYYADSVKGRFTISRDYANNTVYLQMNSLKPEDTAVYYCTFYWYNYWGQGTQVTVSS,high polyreactivity
21,QVQLVESGGGLVQAGGSLRLSCAASGSTFYANAKGWYRQAPGKERELVAAISSTGGSTYYADSVKGRFTISRDNAKNTVYLQMNSLKPEDTAVYYCAARARWIVAYDLGYWGQGTQVTVSS,low polyreactivity

row,Sequence,polyreactivity (PSR sort gate)
1,QVQLVESGGGLVQAGGSLRLSCAASGSTFYANGMGRYRQAPGKERELDAAISWSGGSTYYADSVKGRFTISRDNAKNTVYLQMNSLKPEDTAVYYCAAAYRSFINGRWYDYWGQGTQVTVSS,low polyreactivity
2,QVQLVESGGGLVQAGGSLRLSCAASGSTFYAYAMGSYRQSPGKERELVAVITSGGTTKYADSVKGRFTISRDNAKNTVYLQLNSLKPEDTAVYYCNVAGRDYAVRWGSFVFWGQGTQVTVSS,low polyreactivity
3,QVQLVESGGGLVQAGGSLRLSCAASGSTFYAYTMGWYRKAPGKERELVAGISRRGGTTYYADSVKGRFTISRDNAKNTVYLQMNSLKPEDTAVYYCAADKTKPQASEGYYAYYYWGQGTQVTVSS,low polyreactivity
4,QVQLVESGGGLVQAGGSLRLSCAASGSTFYDYAMGWYRQAPGKERELVAAMSSSGARTYYADSVKGRFTISRDNAKNSVYLQMNSLKPEDTAVYYCGAKPHTRTTCPSGYWGQATQVTVSS,high polyreactivity
5,QVQLVESGGGLVQAGGSLRLSCAASGSTFYDYAMGWYRQAPGKERELVAGIRNGGSTNYADSVKGRFTISRDNAKNTVYLQMNSLIPEDTAVYYCAAPRWDGFYSYYRVVWGIFDYWGQGTQVTVSS,low polyreactivity
6,QVQLVESGGGLVQAGGSLRLSCAASGSTFYDYAMGWYRQAPGKERELVASIDSGDSTNYADSVKGRFTISRDNAKNTVYLQMNSLKPEDTAVYYCAARVYSVADYYYWGQGTQVTVSS,low polyreactivity
7,QVQLVESGGGLVQAGGSLRLSCAASGSTFYDYVMGWYRQAPGKERELFAAISRTGASTYYADSVKGRFTISRDNAKNTVYLQMNSLKPVDTAVYYCAADSDTVRYYYWGQGTQVTVSS,high polyreactivity
8,QVQLVESGGGLVQAGGSLRLSCAASGSTFYENAMVWSRQAPGKDRELVAAISRSTGRTYYADSVKGRFTISRDNAKNTVYLQMNSLKPEDTAVYYCAARVYGRMYFWGQGTQVTVSS,high polyreactivity
9,QVQLVESGGGLVQAGGSLRLSCAASGSTFYFYAMGWYRQAPGKERELVAAITYSGDRTRYADSVKGRFTISRDNAKNTVYLQMNSLKPEDTAVYYCAARYVGARNAYRMGYWGQGTQVTVSS,high polyreactivity
10,QVQLVESGGGLVQAGGSLRLSCAASGSTFYFYARGWYRQAPGKERELVAVISSGGTTNYADSVKGRFTISRDNAKNTVYLQMNSLKPEDTAVYYCNAEPPRGYTVSSGGEMDYWGQGTQVTVSS,low polyreactivity
11,QVQLVESGGGLVQAGGSLRLSCAASGSTFYGNAMGWYRQATGKERELVAAIRWRGGRTYYADSVKGRFTISRDNAKNTVYLQMNSLKPEDTAVYYCNALPGVSHTQYDRVGYWGQGTQVTVSS,high polyreactivity
12,QVQLVESGGGLVQAGGSLRLSCAASGSTFYGNMGWYRQAPGKERALVAAITYRGTNTYYADSVKGRFTISRDNAKNTVYLQMNSLKPEDTAVYYCAAEYDVYQGRGRYYGYDYWGQGTQVTVSS,high polyreactivity
13,QVQLVESGGGLVQAGGSLRLSCAASGSTFYGYAMGGNRQAPGKERELVAAMTWGGASTYYADSVKGRFTIARDNAKNTVYLQMNSLKPEDTAVYYCATVGWGYQPYPFGMDYWGQGTQVTVSS,low polyreactivity
14,QVQLVESGGGLVQAGGSLRLSCAASGSTFYGYAMGWNRQAPGKERELVADIDSIAGSTYYADSVKGRFTISRDNAKNTVYLQMNSLKPEDTAVYYCAARRFDTALVLYDYWGQGTQVTVSS,low polyreactivity
15,QVQLVESGGGLVQAGGSLRLSCAASGSTFYGYAMGWYRQAPGKERELVAAIRSGGRTYYADSVKGRFTISRDNAKNTVYLQMNSLKPEDTAVYYCNARSFNYRTFGGKMGYWGQGTQVTVSS,high polyreactivity
16,QVQLVESGGGLVQAGGSLRLSCAASGSTFYGYGLGWYRPAPGKERELFAAITGSGDTTYYADSVKGRFTISRDNAKNTVYLQMNSLKPEDTAVYYCNARWHAEYDYWGQGTQVTVSS,low polyreactivity
17,QVQLVESGGGLVQAGGSLRLSCAASGSTFYGYTMGWYRQAPGKERELVAVITSGGSTYYADSVKGRFTISRDNAKNTVYLQMNSLKPEDTAVYYCAKRYGYPAYGRPWRIGRTYDYWGQGTQVTVSS,low polyreactivity
18,QVQLVESGGGLVQAGGSLRLSCAASGSTFYHNAMGWYRQAPGKERELVAAMTWSGSRTYYADSVKGRFTISRDNAKNTVYLQMNSLKPEDTAVYYCAARDYWGQGTQVTVSS,high polyreactivity
19,QVQLVESGGGLVQAGGSLRLSCAASGSTFYHYAMGWYRQAPGKERELVAAISTSGGRTYDADSVKGRFTISRDNAKNNVYLQMNSLKPEDTAVYYCAARPGSWYPSVPSYNYWGQGTQVTVSS,low polyreactivity
20,QVQLVESGGGLVQAGGSLRLSCAASGSTFYIHAMGWNRQAPGKERELVAAISATGTRTYYADSVKGRFTISRDNAKNTFYLQMNSLKPEDTAVYYWNAVYWYWWVITYVGPGLGYWGQVTQVTVSS,high polyreactivity
